Experimental data as given in the DeepSol protein solubility set.

Assay: soluble on expression in E. coli; label from the status in PepcDB or PDB records

Soluble on expression in E. coli, not soluble:
MKDHSGISFGKNPTVLAIENYIRENGLTPGDVLPSEAAICEHLSVSRSSVREAMRTLASLDVVEIRHGHGTYVGKMSMAPLVNGMVLRLTLNEKSAIENLQHVVGMRIALDRSNAQELAAYYKGRETPKLDQIVEEMKIQFERGESFEHQDFLFHQLLNDHLSNPLMQEFSMALWEIHTRVVPRLGLRDPEDISNTVQAHAHMVEALRAGDVDKLLETIDEHYQPLLSILEKNRQYVEQTEHAVESQKGTLHL
MSLKIVLTGSIGRINQTLVPKLTHAGHEVTVISHQATRSSLIKVFRATPAIGRLDDEAFLTKTFMGADVVYLMVTGIAASDDLYTAAKRQADIYAAAIKAAGVKRVVNLSSVGADLGPEVGALYMYHIIEQTLTTALPDVDLTFIRPTAMYYNLLSSVPTVKKSHRIYTNANLAVKNVWVAPVDVTTVLIKALTEPTPGQTVTYVASDEKTYLEVASALSQALKMPDLRVSQVPDEVMQDHLVTAGTPVAFAREYVKTVAYQRDHDFYADYRAHQPRLGDVKLADFAEGHHHHHH
MLEELGKVVEFKGKGVELHLDGQGEPFLYPYMEYFLEKASRMKGVEVVSIQSNGTLLTEEKISAIEDYVTRINLSLSSLDEKTAKTLHGAYSVKKVKEVAEMIASSKMDLLIAPVWVPGYNDREIPKIIEFALEIGAGKKYPPLGIQKYIPYRYGRKAGKSMPFKEFYRRLEEYEKEYGVKLVLGPEDFGMEKRPK
MPSADVLIIGSGIAALRVAKEICHEKNVIIITKETNRNNNTHLAQGGIAAAVATYDNPNDHFEDTLVAGCRYNNEDVVRYLVEEGPKEMKNLIENGMQFDGDETGPHLGKEGAHRKRRILHAGGDATGKNLLEHFIQEVVPHVTVVEQEMVLDFIIESEKCVGVLTRNSEGKLKRYDADYTVLASGGVGGLYAFTSNDKTITGDGLAMVYRAGGELVDLEFVQFHPTMLYAGGQCCGLVSEAVRGEGAVLINGKGQRFMMDIHDDYDLAPRDVVARAIHEQLLSGEKVYLNIGSIQNFQERFPTVSALCKKNGVDITKKRIPVVPGAHFHMGGVKTNIDGETSIPNLYAVGEVACNGVHGANRLASNSLLEGLVFGKRIGQHILTKATKDKLNDFAEKEKKFIVLNHLPTKEEIQECMMKYVGIVRTEQSLSYAKRWLSKYGVRNMILQHDALTNEEITLINMLTVCELIVVSALQREESIGGHYRSDYPHRNSAQKEIIRVKRKLQLV
MGSDKIHHHHHHMSNSELYYEELTDLSVRIALGIKNRTEPLDELSQAMTQLSQTNAIKGNAANAMKAYINEVHMTLIQTLELLLNNYEMALGKYVKGYLEVDSDESFKLIKEDFDAHKNNLSSHQSDFTSIGNKLKAISDEAEDIISLRGAGSKRLFNVAKDMGTMKEIVSNLNNKWNDYEQSDPGFNQVQDLIAQTTSLLKSTLSVPRGYSYSPGSFSKLISKDFVNAFEVNANYAQNPDNQKAFKANWNSISKNYTTDQKRMAEEAKEEAQKDGRIGLIWDAIASCCRNSACCDRSWSGFWCCSHCRWY
MPDRHVASSETKRGGAGMTDRELSDQAIAVLVDVARTAGRDLNAGQRLELDRLVSDGLVAVSTSGDPAGQRHYRLTVAGQTALDQRGVGANEA
MGSDKIHHHHHHMVNKNLYTLLVCLLLAGCDLIDYHPYDVRISGETDVNAHNIEQIEAKCKGKTTIRFITMGDSQRWYDETEDFVKEVNKRDDIDFVIHGGDMSDFGLTKEFLWQRDIMNGLKVPYVVLIGNHDCLGTGAETYQAVFGPTNFSFIAGNVKFVCLNTNALEYDYSEPIPNFGFMEQELTDRADEFEKTVVSMHAHPFADVFNDNVAKPFQYYITQYPGLQFCTAAHNHGFDDRILFDDDVHYIVSDCMKSRSYLVFTITPEKYEYELVEY
MMFNFYQFLYNLQNVSPFIDFSVLKQLTHTKMRENEPARFETRSFSQLIDHARSWKTEVRGMTTQGFTKISLMRAEKDRLNMYAISSVPGTNTQSIFSVTIPLELVEKAQVADRKFELKLKSGYNVDSYIRKTPPSAEFTLQCERQRSQVVTGISDYEIRNGKMILMAGDQLFRYNPLNEALAAIPIAVPDDQSSTEPMDISEGSITSGTKGCSNEAPQSSTVPPVTRIPIKKPTTSTEKPATAPPTNNFVSSAKVCPADSSLLAYVLNKQVYIEKNGKIIHRTSSNSKHITNGVPSYIVQEELERFEGIWWSESKTRLLYEHVNEEKVAESQFGVNGDPPVAPMKYPRAGTKNAYSTLRMVILENGKAYDVPLKDEVIYKHCPFYEYITRAGFFSDGTTVWVQVMSRDQAQCSLLLIPYTDFLLPEELGGSIKEDNLQLSTDLNMGVWDDKSHEETMEKPPRGKLRGTVQIHKARNDYWINTHNAIYPLKITDEEHPMYEFIYCLEKPNGSCLALISAELDQNGYCRHTEEKLLMAENFSINKSMGIVVDEVRELVYYVANESHPTEWNICVSHYRTGQHAQLTESGICFKSERANGKLALDLDHGFACYMTSVGSPAECRFYSFRWKENEVLPSTVYAANITVSGHPGQPDLHFDSPEMIEFQSKKTGLMHYAMILRPSNFDPYKKYPVFHYVYGGPGIQIVHNDFSWIQYIRFCRLGYVVVFIDNRGSAHRGIEFERHIHKKMGTVEVEDQVEGLQMLAERTGGFMDMSRVVVHGWSYGGYMALQMIAKHPNIYRAAIAGGAVSDWRLYDTAYTERYMGYPLEEHVYGASSITGLVEKLPDEPNRLMLVHGLMDENVHFAHLTHLVDECIKKGKWHELVIFPNERHGVRNNDASIYLDARMMYFAQQAIQGFGPTTAAPRQGPL
MASLSDQSGSIGSEQTRPSGAIPVESLPPQALEQLIASLQQEVEQLADALQQLNFANQRWTLCKQSIEAFAEETTRVDLPGAQSRATDAISSTASAKPETSVEVNQNQRLLVPLSRSLYVLGRVINPERCLIDIGTGYHVERKLADAAEFFDRRLKHVRGSMRQLTLKIDQNQQQMQTIREILVRKLAGAQQAAEHT
MGSDKIHHHHHHMNDPAHPPIPPVSKRDAPAFSDLQHRATSASAFTQGSTTYHDVRPGYPAEAVELARGFGRVLDVGAGTGKLTSELTADQVLALDPSMDMLRVFRSALPAVPCWQATAEHTGIRDNAVDLITCAQTWHWVDVTAASAEFDRVIAPEGAVLLVWNNLDTSIAWVHRLSRIMHAGDVLKPGFTPETAAPWIIDREIRTTWNQHLTPEEIIQLAHTRSYWLNASEKIKERVDQNLQWYLYEHLGFSPDNPVELPYRCDAFLLSRSGTLAGRSSNL
MGSDKIHHHHHHMASESWMKTQAPDPTNLPAEINPEVPSIARVYDYFLGGKDNFPADRAAAAAVEKVFPQGKQLGRESRMLLRRATRELVRAGVRQFLDIGSGLPTAGNVHEIAHEIDPEVRVVYIDNDPVVLAHGRALLADEVTTTVVQADLRHPDGIFDNPEVRALLDFDQPVAVFLASILHHFDDSDDPWALSRKIRDRISSGSYMLITHFYDSGDPVCREVEQALLEGGLGSGWFRTKEQIERFFEGMDVLEPGVVAANEWRPDAETPTDSTTHHLLAGGLARKP

Soluble on expression in E. coli, soluble:
MAVSLSKGGNVSLSKEAPGLTGIVVGLGWDPRATDGQAFDLDGSVFLLDAGGKVRGDSDFIFYNNKTSSDGSVEHTGDNTTGAGEGDDETVKIDLSKVPADVDKIAVCVTIHEAETRNQNFGQVSKAYIRVMNQTGGAEIARYDLSEDASTDTAMIFGEVYRHGSDWKFKAVGQGYAGGLAPLARNYGVNV
MSLKNYQSSDPFKEARVSSGCAHMNDQDDPVTMILRLKDVRKTAHNWKTFQSGAAPGRIVIPSEVNIRDTRQIPFEVDPPLHGAFRSLLDPWFKRPLKAQYQETLAQQVNALVDDVLKADSIDVVEDFALCLQSRALTLLLNTDADEADTWIGWGTHVFRSEDDPLDGDKAAILYDYIDEKIKASSPNPEGDLYSVLLAAEVEGKKLTHEEIKGIMILTFAGGRDTVINAVTNTVSYFAQHPESLARLRNEPEIIGRAIEELIRYFTPLTQMGRVVTQDTQVCEHAIKADSRVSLCWASANRDESVFESPNDVILDRKLNPHVSFGFSHHNCLGATHARQIMRVLIETLMAKVGSIDIIDFEENIEYLGEFERKVGFHKLHVNIHPREGHHHHHH
MALVVQKYGGSSLESAERIRNVAERIVATKKAGNDVVVVCSAMGDTTDELLELAAAVNPVPPAREMDMLLTAGERISNALVAMAIESLGAEAQSFTGSQAGVLTTERHGNARIVDVTPGRVREALDEGKICIVAGFQGVNKETRDVTTLGRGGSDTTAVALAAALNADVCEIYSDVDGVYTADPRIVPNAQKLEKLSFEEMLELAAVGSKILVLRSVEYARAFNVPLRVRSSYSNDPGTLIAGSMEDIPVEEAVLTGVATDKSEAKVTVLGISDKPGEAAKVFRALADAEINIDMVLQNVSSVEDGTTDITFTCPRSDGRRAMEILKKLQVQGNWTNVLYDDQVGKVSLVGAGMKSHPGVTAEFMEALRDVNVNIELISTSEIRISVLIREDDLDAAARALHEQFQLGGEDEAVVYAGTGR
MPGFNYGGDQDEVYTPYRRVLVTGATGLLGRAVYKEFKNNDWDALGCGYNRARPFFLKCNLLDEDAVRGVIQSFQPHVIVHCAAERRPDVVERHTEAAMNLNVHACATLAKEAGGSFLIYISTDYVFDGRNPPYGENDAPNPLNLYGKSKLEGEREILRHCPGAAVLRVPILFGEVEKVEESAVTVLFERVQEGAESCTIDHCQQRFPTYTNDVARVCRNMAERALQDQSLRGIFHYSAKEQMTKYEMTCAIADAFNLPSSHLIPMTEQPAGAGAQRPQNAQLECSRLELLGLSVESTPFKNAIRDSLWPFQHDKRWRQTVFH
MATSMIQRLFKQGTKIVGVGLNYASHAKELGNALPKDPIVFLKPTSSYLENGGTIEIPHPLDSLHHEVELAVVIGQKARDVPERLAMNYIGGYALALDMTARELQVSAMASGLPCTLAKGQDTFTPISSVLPKAMVLDPNNLELWLKVDDETRQKGWTKDMIFKVPYLISYISSVMTLFKGDVILTGTPEGIGPVKIGQKITAGITGLSEVQFDVGRRLKPLLR
MSLKIAVTGGTGFLGQYVVESIKNDGNTPIILTRSIGNKAINDYEYRVSDYTLEDLINQLNDVDAVVHLAATRGSQGKISEFHDNEILTQNLYDACYENNISNIVYASTISAYSDETSLPWNEKELPLPDLMYGVSKLACEHIGNIYSRKKGLCIKNLRFAHLYGFNEKNNYMINRFFRQAFHGEQLTLHANSVAKREFLYAKDAAKSVIYALKQEKVSGTFNIGSGDALTNYEVANTINNAFGNKDNLLVKNPNANEGIHSSYMDSSKAKELLDFSTDYNFATAVEEIHLLMRGLDDVPLWYEGHHHHHH
GSHMNRFLTSIVAWLRAGYPEGIPPTDSFAVLALLCRRLSHDEVKAVANELMRLGDFDQIDIGVVITHFTDELPSPEDVERVRARLAAQGWPLDDVRDREEHA
MARKLFTPITIKDMTLKNRIVMSPMCMYSSHEKDGKLTPFHMAHYISRAIGQVGLIIVEASAVNPQGRITDQDLGIWSDEHIEGFAKLTEQVKEQGSKIGIQLAHAGRKAELEGDIFAPSAIAFDEQSATPVEMSAEKVKETVQEFKQAAARAKEAGFDVIEIHAAHGYLIHEFLSPLSNHRTDEYGGSPENRYRFLREIIDEVKQVWDGPLFVRVSASDYTDKGLDIADHIGFAKWMKEQGVDLIDCSSGALVHADINVFPGYQVSFAEKIREQADMATGAVGMITDGSMAEEILQNGRADLIFIGRELLRDPFFARTAAKQLNTEIPAPVQYERGW
